Results published in patent publication US20250352661A1 (MYTHIC THERAPEUTICS, published 2025).

T1: Human LRRC15 Protein, His Tag (Acro Biosystems) (human, UniProt Q8TF66 22-538, limits assumed)
T1 construct: not shown: His tag
T1 sequence (looked up): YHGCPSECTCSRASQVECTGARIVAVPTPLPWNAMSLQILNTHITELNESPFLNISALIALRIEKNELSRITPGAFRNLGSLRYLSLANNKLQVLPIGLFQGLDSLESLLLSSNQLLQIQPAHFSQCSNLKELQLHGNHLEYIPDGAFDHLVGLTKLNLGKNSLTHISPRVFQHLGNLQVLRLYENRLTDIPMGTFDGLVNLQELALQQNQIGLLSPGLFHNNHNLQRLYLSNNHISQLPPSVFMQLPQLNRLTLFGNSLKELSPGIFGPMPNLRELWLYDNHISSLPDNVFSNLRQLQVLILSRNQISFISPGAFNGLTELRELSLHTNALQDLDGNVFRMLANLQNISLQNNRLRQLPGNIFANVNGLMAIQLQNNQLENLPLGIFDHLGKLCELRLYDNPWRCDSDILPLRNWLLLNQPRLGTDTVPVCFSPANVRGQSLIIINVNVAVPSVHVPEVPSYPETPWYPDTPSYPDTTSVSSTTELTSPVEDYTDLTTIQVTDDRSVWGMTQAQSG

T2: Human LRRC15 Protein, His Tag (Acro Biosystems) (human, UniProt Q8TF66 22-538, limits assumed)
T2 construct: Bought protein with His tag
T2 sequence (looked up): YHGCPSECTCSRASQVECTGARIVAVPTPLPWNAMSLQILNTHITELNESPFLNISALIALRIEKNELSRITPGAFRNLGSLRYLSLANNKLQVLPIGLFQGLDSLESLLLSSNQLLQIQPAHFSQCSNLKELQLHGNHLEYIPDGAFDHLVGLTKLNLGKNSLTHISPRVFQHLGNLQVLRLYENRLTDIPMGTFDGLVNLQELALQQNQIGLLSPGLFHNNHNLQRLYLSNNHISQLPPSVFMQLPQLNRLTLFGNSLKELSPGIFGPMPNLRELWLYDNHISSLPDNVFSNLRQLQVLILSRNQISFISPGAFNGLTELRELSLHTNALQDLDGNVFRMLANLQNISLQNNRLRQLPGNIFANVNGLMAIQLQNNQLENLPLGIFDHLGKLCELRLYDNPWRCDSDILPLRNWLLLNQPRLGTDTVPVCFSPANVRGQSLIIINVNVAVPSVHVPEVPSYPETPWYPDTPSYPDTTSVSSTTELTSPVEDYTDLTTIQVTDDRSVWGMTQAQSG

B1: MYT9465 (antibody, V domains shown)
VH: EVQLVESGGGLVQPGGSLRLSCTASGDSFSSSHWICWVRQAPGKGLEWVGCIYAGSIGSTYYASWAKGRFTISRDTSKNTVYLQMNSLRAEDTAVYYCARAPNDIYNYYFNLWGQGTLVTVSS
VL: EIVMTQSPSTLSASVGDRVIITCQASENIYNYLAWYQQKPGKAPKLLIYYASTLASGVPSRFSGSGSGAEFTLTISSLQPDDFATYYCQSGYVSKSSTFGQGTKLTVL
notes: also called hu29F1 VH F27D
B2: MYT9470 (antibody, V domains shown)
VH: EVQLVESGGGLVQPGGSLRLSCTASGFSFSSDHWICWVRQAPGKGLEWVGCIYAGSIGSTYYASWAKGRFTISRDTSKNTVYLQMNSLRAEDTAVYYCARAPNDIYNYYFNLWGQGTLVTVSS
VL: EIVMTQSPSTLSASVGDRVIITCQASENIYNYLAWYQQKPGKAPKLLIYYASTLASGVPSRFSGSGSGAEFTLTISSLQPDDFATYYCQSGYVSKSSTFGQGTKLTVL
notes: also called hu29F1 VH S32D
B3: MYT9468 (antibody, V domains shown)
VH: EVQLVESGGGLVQPGGSLRLSCTASGFSFDSSHWICWVRQAPGKGLEWVGCIYAGSIGSTYYASWAKGRFTISRDTSKNTVYLQMNSLRAEDTAVYYCARAPNDIYNYYFNLWGQGTLVTVSS
VL: EIVMTQSPSTLSASVGDRVIITCQASENIYNYLAWYQQKPGKAPKLLIYYASTLASGVPSRFSGSGSGAEFTLTISSLQPDDFATYYCQSGYVSKSSTFGQGTKLTVL
notes: also called hu29F1 VH S30D
B4: MYT9469 (antibody, V domains shown)
VH: EVQLVESGGGLVQPGGSLRLSCTASGFSFSDSHWICWVRQAPGKGLEWVGCIYAGSIGSTYYASWAKGRFTISRDTSKNTVYLQMNSLRAEDTAVYYCARAPNDIYNYYFNLWGQGTLVTVSS
VL: EIVMTQSPSTLSASVGDRVIITCQASENIYNYLAWYQQKPGKAPKLLIYYASTLASGVPSRFSGSGSGAEFTLTISSLQPDDFATYYCQSGYVSKSSTFGQGTKLTVL
notes: Humanized 29F1 VH aspartate variant; also called hu29F1 VH S31D
B5: MYT9476 (antibody, V domains shown)
VH: EVQLVESGGGLVQPGGSLRLSCTASGFSFSSSHWICWVRQAPGKGLEWVGCDYAGSIGSTYYASWAKGRFTISRDTSKNTVYLQMNSLRAEDTAVYYCARAPNDIYNYYFNLWGQGTLVTVSS
VL: EIVMTQSPSTLSASVGDRVIITCQASENIYNYLAWYQQKPGKAPKLLIYYASTLASGVPSRFSGSGSGAEFTLTISSLQPDDFATYYCQSGYVSKSSTFGQGTKLTVL
notes: also called hu29F1 VH I52D
B6: MYT9466 (antibody, V domains shown)
VH: EVQLVESGGGLVQPGGSLRLSCTASGFDFSSSHWICWVRQAPGKGLEWVGCIYAGSIGSTYYASWAKGRFTISRDTSKNTVYLQMNSLRAEDTAVYYCARAPNDIYNYYFNLWGQGTLVTVSS
VL: EIVMTQSPSTLSASVGDRVIITCQASENIYNYLAWYQQKPGKAPKLLIYYASTLASGVPSRFSGSGSGAEFTLTISSLQPDDFATYYCQSGYVSKSSTFGQGTKLTVL
notes: also called hu29F1 VH S28D
B7: MYT8436 (antibody, V domains shown)
VH: EVQLVESGGGLVQPGGSLRLSCTASGLDFRRTNYICWVRQAPGKGLEWVGCIYIADVVHYYASWAKGRFTFSRDTSKNTVYLQMNSLRAEDTAVYYCARGADGGFVYGMDLWGQGTLVTVSS
VL: EIVMTQSPSTLSASVGDRVIITCQASQSIGNHLSWYQQKPGKAPKRLIYSASTLPSGVPSRFSGSGSGAEFTLTISSLQPDDFATYYCQNNYHLAHYGHPFGQGTKLTVL
notes: hu15G7 VL Y32H, W93H, G96H; human Fc
B8: MYT8437 (antibody, V domains shown)
VH: EVQLVESGGGLVQPGGSLRLSCTASGLDFRRTNYICWVRQAPGKGLEWVGCIYIADVVHYYASWAKGRFTFSRDTSKNTVYLQMNSLRAEDTAVYYCARGADGGFVYGMDLWGQGTLVTVSS
VL: EIVMTQSPSTLSASVGDRVIITCQASQSIGNYLSWYQQKPGKAPKRLIYSASTLPSGVPSRFSGSGSGAEFTLTISSLQPDDFATYYCQNNHHLAHYGHPFGQGTKLTVL
notes: hu15G7 VL Y92H, W93H, G96H; human Fc

What follows are binders tested against T1, Human LRRC15 Protein, His Tag (Acro …) (assay: BLI; dissociation pH 7.4 black, pH 5.4 grey [1/2); D00019 FIG. 4B (1/2]).
Protocol: Desirable mutations were transferred to a humanized framework (humanized, MYT 8387-8411). After allowing for four days of protein expression, cell culture supernatants were collected, quantified by SDS-PAGE analysis, and the pH dependence of the variant was evaluated using biolayer interferometry (BLI) on an Octet RED 96e instrument. Briefly, cell culture supernatants were diluted based on qualitative expression level of the variant determined by visual examination of SDS-PAGE gels, 5 μL of cell culture supernatant was diluted into 195 μL of 1×PBST, pH 7.4 for high expressors, 25 μL of cell culture supernatant was diluted into 175 μL of 1×PBST, pH 7.4 for medium expressors and 100 μL of cell culture supernatant was diluted into 100 μL of 1×PBST, pH 7.4 for low expressors for loading onto the sensor tips. The resulting diluted supernatants were then captured on an anti-human Fc sensor (Forte Bio). A baseline was established using 1×PBST (50 mM Potassium Phosphate Buffer+150 mM NaCl+0.05% Tween 20) pH 7.4, and the […] was associated with 50 nM of LRRC15 (Human LRRC15 Protein, His Tag, Acro Biosystems) in 1×PBST pH 7.4 for 120 sec to generate an association curve. In the dissociation phase, the antibody-antigen complex on the sensor was exposed to 1×PBST pH 7.4 or pH 5.4, for 300 sec. Association and dissociation phase curves were examined for the starting ABPC antibody (with no substitutions) and each corresponding antibody variant at pH 5.4 and pH 7.4 to inform on two criteria: a) enhanced dissociation (i.e., higher koff values) at pH 5.4 due to histidine substitution compared to the starting ABPC, (with no substitutions), and b) reduced dissociation at pH 7.4 (i.e., lower koff values) compared to pH 5.4 in the antibody variant itself and with the starting ABPC (with no substitutions).
The methods of Examples 9-10 were applied to RabMAb clone 29F1 (rabbit VH SEQ ID NO: 572 and VL SEQ ID NO: 578; and humanized VH SEQ ID NO: 576 and VL SEQ ID NO: 582).

| Binder | binding result |
| --- | --- |
| B1 | binds |
| B2 | binds |
| B3 | binds |
| B4 | binds |
| B5 | binds |
| B6 | binds |

Each binder was assayed against T2, Human LRRC15 Protein, His Tag (Acro …) (assay: BLI; dissociation pH 7.4 black, pH 5.4 grey [D00010 FIG. 1H]).
From the text: For each individual plot, antigen binding proteins were captured on anti-human Fc biosensors and associated with LRRC15 at pH 7.4. Dissociation was at pH 7.4 (black) or pH 5.4 (grey). Major X-axis ticks=100 seconds, with left dashed vertical line=0 seconds. Major Y-axis ticks=0.5 nm and octet plots are shown MYT5712 and MYT6080-MYT6121.
Multiple LRRC15-binding monoclonal antibodies have been described in the literature and can be used as a template for engineering pH-dependent binding. We selected discovery RabMAb clone 15G7 (rabbit VH SEQ ID NO: 378, rabbit VL SEQ ID NO: 451; humanized VH SEQ ID NO: 382, humanized VL SEQ ID NO: 455) as a LRRC15-binding monoclonal antibody for pH-engineering via histidine scanning. […] To generate pH-dependent sequence variants, individual amino acid residues within the heavy chain CDRs were systematically substituted with a histidine (or alanine if H was already present in a given position; e.g., MYT6099), one at a time (rabbit, MYT6080-6121). Desirable mutations were transferred to a humanized framework (humanized, MYT 8387-8411). After allowing for four days of protein expression, cell culture supernatants were collected, quantified by SDS-PAGE analysis, and the pH dependence of the variant was evaluated using biolayer interferometry (BLI) on an Octet RED 96e instrument. Briefly, cell culture supernatants were diluted based on qualitative expression level of the variant determined by visual examination of SDS-PAGE gels, 5 μL of cell culture supernatant was diluted into 195 μL of 1×PBST, pH 7.4 for high expressors, 25 μL of cell culture supernatant was diluted into 175 μL of 1×PBST, pH 7.4 for medium expressors and 100 μL of cell culture supernatant was diluted into 100 μL of 1×PBST, pH 7.4 for low expressors for loading onto the sensor tips.

| Binder | binding result |
| --- | --- |
| B7 | no binding (tested: 50 nM LRRC15) |
| B8 | no binding (tested: 50 nM LRRC15) |
